# Test results from the supplement of paper PMC12764529.
# ± gives the half width of the 95% confidence interval.
# Tests used:
# [1] = folding stability dG unfold from trypsin proteolysis; higher = more stable
# In short: (§1)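 Only designs with AlphaFold2 dimer inter-PAE above 15 were retained; each was a mini-protein under 80 residues with no cysteine, in a PA-tagged cDNA display construct. After digestion with trypsin and chymotrypsin and sequencing, K50 was inferred by Bayesian fitting of counts, and unfolding free energy was derived per protease or combined against a sequence-predicted unfolded-state K50 and a shared folded-state K50.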
# [2] = folding stability dG unfold from chymotrypsin proteolysis; higher = more stable
# In short: as §1
# [3] = folding stability dG unfold (combined trypsin and chymotrypsin); higher = more stable
# In short: as §1
Sequence,folding stability dG unfold [1] [kcal/mol],folding stability dG unfold [2] [kcal/mol],folding stability dG unfold [3] [kcal/mol]
SAGIKIKDISRDPNGYVEVTIVYPPGKSIKEIIELIRKLFGFKIEKVEIYPSPNGVYITYRFRIPEGAISAG [r5_774_TrROS],3.15 ± 0.11,4.47 ± 0.058,4.13 ± 0.12
SAGIKPGEKIEKVEIVKVEVKKNKDGSKTVTVTIKLKDGKTITIKPGETIEIKIENKKEGEKITLKVKSAGG [r19_199_TrROS_Hall],1.45 ± 0.13,1.91 ± 0.13,1.74 ± 0.16
SAGIPYRVLELEIPGVGVRVEVRLAPDGRIVEVRVTVVPVPPVPPALPLRPELLVPDEDGRWYSPEELLSAG [r5_685_TrMRF],2.68 ± 0.059,2.26 ± 0.028,2.44 ± 0.11
SAGITIRLPGAEIEVQRYPHPGNGMPMYRVTVELENPEGKKPKVDVIFPPNQPPGQVENVARYIAKELKSAG [r5_704_TrROS],0.858 ± 0.13,-0.302 ± 0.28,0.472 ± 0.16
SAGIYIPMDMTIDELVDILQKFGIRSVTTERMPEPGMYKATLKFPDLTIEIWYHPNWMHIEIVPPGEPISAG [r5_899_TrROS],2.77 ± 0.12,4.18 ± 0.07,3.85 ± 0.23
SAGKETIKIKLFDKNGKLIAEIEIEKLPDGTYKIKIKNKKTGKELEIEVKIEDGKIYIKLPNGAILEIESAG [r5_809_TrROS_Hall],3.51 ± 0.19,5.13 ± 0.2,5.04 ± 0.2
SAGKEVIVITVEELEKLLKALKPGEKVKIVVINKDGKKVTFTAEVKDGKVEIKEAEKDIKPGDKIFIEKSAG [r5_85_TrROS_Hall],1.85 ± 0.17,3.49 ± 0.28,3.09 ± 0.46
SAGKFKITNISPMEERKPEDDKWEEQPYIMIRMRWKDPQKALDEIKEEFGYPVNIQRDPDDGWATIMIPSAG [r5_907_TrROS],0.137 ± 0.2,0.231 ± 0.18,0.248 ± 0.11
SAGKIEIEVNEDGYKVRIKVEIEGKTYEFEIKVEGLSVEEIVKKALEELKKLFPNKKIKVEVEILPKKESAG [r5_180_TrROS_Hall],4.14 ± 0.21,4.81 ± 0.3,4.9 ± 0.54
SAGKIEILDEKPYKDSITVVAKLPGTDEIIVLTYNPKTKTVEIKIFPPKGVKTIPVKAKDIEKALKEIASAG [r5_769_TrMRF],0.728 ± 0.072,2.18 ± 0.16,1.7 ± 0.25
SAGKIEKIVITKKKDGYVIKVYYKDNKKVKTYKAGKTLEEIKKKLEEEGFEIVKVEVKKVKPGEKVEISAGG [r19_386_TrROS_Hall],2.32 ± 0.18,3.23 ± 0.21,3.06 ± 0.43
SAGKIKIEVEYLDPNGDWRRYEHTIPFKPNQSFEEAINELLPPGLREIKITEVDPEEGTIKIDIWIRPDSAG [r5_227_TrROS],2.12 ± 0.13,2.5 ± 0.061,2.41 ± 0.19
SAGKIPPIKDIEPNPDNGMLMITIPFPDDGKLKVRIENKGQDQEYEFPPGMSFMIPPSNAPIKIEIEWDSAG [r14_96_TrROS],0.858 ± 0.019,0.82 ± 0.069,0.874 ± 0.098
SAGKITLDGFTLDGEQTLTLTVEVPAPGGGTRTETFTATVTFDPETGTAHVPVTLPNGEELPFTFKVDASAG [r5_743_TrMRF],1.18 ± 0.024,1.52 ± 0.09,1.42 ± 0.075
SAGKKIELTFRNPDGWMIRITIEKKPNGGFQITEITWEPYPNGRMSAKIYVPNGKTIEVNSWDDILDALSAG [r5_618_TrROS],1.09 ± 0.038,2.57 ± 0.075,2.12 ± 0.12
SAGKKITAEELAKKIAEELGLPEDAKVEVEEVDGTIYIRVEGYVIKITVKDGEITIEIKPAPASPEALKSAG [r5_190_TrROS_Hall],1.53 ± 0.044,2.91 ± 0.11,2.43 ± 0.28

Sequence,folding stability dG unfold [1] [kcal/mol],folding stability dG unfold [2] [kcal/mol],folding stability dG unfold [3] [kcal/mol]
SAGKKKKIKIKVKIIVNGKLKEIEIEVDENKTLEEILAEIKKKLPKNAIIIITNENGEKKIIILPKEELSAG [r5_77_TrROS_Hall],2.49 ± 0.24,1.58 ± 0.1,1.89 ± 0.45
SAGKKKKIKKIEIEIEKNKDGKEIKVKVKVDGKEYEFTFPKNMSLEELLKKLKEELEKEGLKIEEVEIKSAG [r5_305_TrROS_Hall],2.5 ± 0.13,2.8 ± 0.13,2.73 ± 0.18
SAGKKKKYKIKIKIEISEDGTIKITIEIFDKNGKLVKKIEITIKLPKVKLSEEELKEAAKKGDLEKALKSAG [r5_944_TrROS_Hall],2.23 ± 0.28,3.6 ± 0.28,2.95 ± 0.7
SAGKKKVIIVKVKPEDLEKLLEAIKKLPKEKVKRIEIEVNGKLYLIEVTDKEIKIYDIETGEEKTIKLSAGG [r19_154_TrROS_Hall],2.1 ± 0.22,2.6 ± 0.061,2.39 ± 0.56
SAGKKKVLLAVDPENNALVLVEYETVGDVTFVRSLVFHGNTTTETLGLVRVIEPGKTEKLLISVPIPPSAGG [r19_292_TrMRF],2.07 ± 0.047,2.3 ± 0.05,2.26 ± 0.13
SAGKKLFIKVKIRVKKKVKLKDGKTVEKEKELTLLIEAESEEEALEAAKKLAEELGLEIEKVEIFKAPSAGG [r19_176_TrROS_Hall],2.41 ± 0.15,3.75 ± 0.16,3.09 ± 0.27
SAGKKLIIRVEVYRREKNENGEIKKVTETLEVPPGATIEELVKALAPPGYTIRIEIIENGKIIETIEIKSAG [r5_278_TrROS_Hall],2.14 ± 0.16,3.59 ± 0.086,3.23 ± 0.31
SAGKKQEVTIMIPIRGPAQAREQVEEFANDFPIKPTRVHPNPNKNHYWVMVTMKVPGAKIKIMIWIPPSAGG [r19_262_TrROS],2.94 ± 0.11,4.19 ± 0.057,3.67 ± 0.13
SAGKKSTLTIDLPGSTVTLTYDPATGKVRITVNLGVAVAGIDPETGKPGIVTGSVTLEADIDVPPGAPISAG [r5_195_TrMRF],2.61 ± 0.16,2.68 ± 0.057,2.65 ± 0.15
SAGKKTIIIKIPPNMTVEELKKALKNLKPNEKVTITVNGKKYTITVKDGKIKITFPENVKNMILIIEVKSAG [r5_373_TrROS_Hall],2.08 ± 0.13,2.54 ± 0.057,2.4 ± 0.36
SAGKKTVTIVIRLKEPGERLSAEELAALLRELGLPPGAKVTVERRPDGYLVVTVEVDGKTVTIVIELEDSAG [r5_144_TrROS_Hall],2.04 ± 0.04,2.516 ± 0.019,2.34 ± 0.056
SAGKKVKKITLTIKNKETGEYYKAEVIENENGEKYIKIINKKTGKIYIFKIKDGKIEPVKEISLKDIKPSAG [r5_619_TrROS_Hall],1.85 ± 0.067,3.11 ± 0.053,2.83 ± 0.2
SAGKKVRIWIVFDGDPEQAKYLAEEIAKELRQKDGHKNVDIEVIPPGQDMHQMMEWAEENNVDIVIMVSAGG [r19_89_TrROS],2.68 ± 0.15,3.85 ± 0.19,3.59 ± 0.13
SAGKKVTIKAIVRVKLANGEWFEAKVKEVTFDEETGEVTITVEVDGKTYTITVPLEDIELVDDAEEALKSAG [r5_15_TrROS_Hall],2.19 ± 0.034,3.72 ± 0.064,3.25 ± 0.063
SAGKMLVVRIEVEVEVEVTVEKDGKKETFKEKKKLTLTLVFESEEEAEAAKKELEKLFPDLKIEVVPLPSAG [r5_453_TrROS_Hall],4.43 ± 0.47,4.56 ± 0.16,4.54 ± 0.2
